Laboratory results: paper PMC3145545 (Molecular Biology of the Cell, 2011)

B1: Drosophila LC8 (dynein light chain) (natural protein)
chain: MSDRKAVIKNADMSEEMQQDAVDCATQALEKYNIEKDIAAYIKKEFDKKYNPTWHCIVGRNFGSYVTHETRHFIYFYLGQVAILLFKSG
B2: Pac11 1-86 VQ51,52DA (site 1 mutant) (domain or fragment)
chain: MERLKQLEEKRRQLKELRERRKQASLFPGSETMGHHPTEVHAKATMVSVSDATDMEEGSKIQEPQSAYLRRKEVITYDKGIQTDQI
B3: Pac11 1-86 IQ81,82DA (site 2 mutant) (domain or fragment)
chain: MERLKQLEEKRRQLKELRERRKQASLFPGSETMGHHPTEVHAKATMVSVSVQTDMEEGSKIQEPQSAYLRRKEVITYDKGDATDQI

Assays:
[1] = biological target: B2; test: AUC
[2] = biological target: B3; test: AUC
[3] = biological target: B1; test: native gel or EMSA

| Binder | stoichiometry N [1] [LC8 per Pac11] | stoichiometry N [2] [LC8 per Pac11] | binding result [3] |
| --- | --- | --- | --- |
| B1 | 1 | 1 |  |
| B2 |  |  | binds |
| B3 |  |  | binds |
